Common to all, as to details: both partners purified
Experiment [1] deals with SARS-CoV-2 NSP3 UBl1 domain (SARS-CoV-2, UniProt P0DTD1 819-925). Kind of experiment: fluorescence polarisation. In general terms: In fluorescence polarisation assays a small probe gives low polarisation when free and higher when bound to something large.
Experiment [2] concerns the target G3BP1 NTF2-like domain (1–139), tag cleaved, for FP (human, UniProt Q13283 1-139). Description: fluorescence polarisation.
For experiment [3], the target named is SARS-CoV-2 NSP3 ADRP domain (SARS-CoV-2, UniProt P0DTD1 1023-1192). Description: fluorescence polarisation.
The target of experiment [4] is T1, talin-1 phosphotyrosine binding (TLN1 PTB) domain (human, UniProt Q9Y490 309-401).
T1 construct: source: E. coli BL21 (DE3), purified (Ni Sepharose, tag cleaved with HRV 3C protease)
Kind of experiment: fluorescence polarisation; displacement: unlabelled peptide in serial dilution added to FITC-labelled probe peptide with the protein at 4x the KD value; 50 mM KPO4 pH 7.5; triplicates; sigmoidal dose-response fit.

Experiment [5] has as its target T2, talin‐1 PTB domain (309–401), tag cleaved, for FP (human, UniProt Q9Y490 309-401).
T2 construct: also called TLN1 PTB; source: E. coli BL21 (DE3), purified (Ni Sepharose, HRV 3C cleavage)
Kind of experiment: fluorescence polarisation; human domains; saturation with FITC-labelled probe peptide or displacement by unlabelled peptide; 50 mM KPO4 pH 7.5, DTT; triplicates; the text does not tell which of the two gave each KD.

The target of experiment [6] is SARS-CoV-2 NSP3 SUD-M domain (SARS-CoV-2, UniProt P0DTD1 1356-1493). Kind of experiment: fluorescence polarisation.
Experiment [7] addresses SARS-CoV-2 non-structural protein 9 (NSP9) (SARS-CoV-2, UniProt P0DTD1 4141-4253). Description: fluorescence polarisation.
The target in experiment [8] is talin-1 phosphotyrosine binding (TLN1 PTB) domain (human, UniProt Q9Y490 309-401). Kind of experiment: fluorescence polarisation; saturation (direct binding): human bait protein in serial dilution added to 10 nM-master-mix FITC-labeled probe peptide; 50 mM KPO4 pH 7.5, DTT; triplicates; fit to a quadratic equation.

We go through 25 molecules from publication PMC12102759 (Protein Science : A Publication of the Protein Society, 2025).

For orientation: Kd means the free concentration of one partner at which half of the binding sites on the other are occupied at equilibrium, for simple one-to-one binding. Broadly, the IC50 is the midpoint of a concentration-inhibition curve. A lower IC50 goes with greater potency.

No end group written: not given here. *: point of attachment. FITC = O=C1OC2(c3ccc(O)cc3Oc3cc(O)ccc32)c2ccc(NC(=S)*)cc21

T2 sequence (Q9Y490 309-401): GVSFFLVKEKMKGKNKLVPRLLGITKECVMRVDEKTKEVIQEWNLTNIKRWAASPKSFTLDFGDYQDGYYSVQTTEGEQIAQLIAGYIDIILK
Chain of G3BP1 NTF2-like domain (1–139), tag cleaved, for FP (Q13283 1-139): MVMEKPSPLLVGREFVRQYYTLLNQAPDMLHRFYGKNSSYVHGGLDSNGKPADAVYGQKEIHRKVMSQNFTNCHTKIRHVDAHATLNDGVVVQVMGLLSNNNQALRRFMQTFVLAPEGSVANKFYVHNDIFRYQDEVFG

In experiment [1], SDEGALLDQLYLALRN (FITC on the N-terminus) [FITC-labelled NCOA2 peptide 1074-1089] had a Kd of 67 µM. In experiment [2], APRITFGGPSDSTGS [wildtype SARS‐CoV‐2 N_(12–26) peptide] had a Kd of 2.3 µM. As to PSDEGALLDQLYLALR [NCOA2 wt peptide 1073-1088], in experiment [1], the IC50 came out at 139 µM. As for STYLHPLSELLGIPLD [MBOAT1 wt peptide 17-32], in experiment [3], the IC50 is 175 µM. As to Ac-LADLIFTDSKLYIPLE-NH2 [TPTE2 wt peptide 92-107], the IC50 in experiment [4] was 15 µM. In other words, the double-digit micromolar range.

For Ac-LADLIFTDNKLYIPLE-NH2 [TPTE2_S100N peptide 92-107], the IC50 in experiment [4] was 5.2 µM. In turn, Ac-LADLIFTDSKLWIPLE-NH2 [TPTE2_Y103W peptide 92-107] showed an IC50 in experiment [4] of 66 µM. Against the preceding molecule, the IC50 is about 13-fold higher. Ac-LADLIFTDSKLYLPLE-NH2 [TPTE2_I104L peptide 92-107]: in experiment [4], the IC50 amounted to 14 µM and binding was put at a Kd of 4.5 µM.

In experiment [4], Ac-LADLIFTDSALYIPLE-NH2 [TPTE2_K101A peptide 92-107] had an IC50 of 45 µM and a Kd of 15 µM.

In the case of Ac-LADLIWTDSKLYIPLE-NH2 [TPTE2_F97W peptide 92-107], the IC50 in experiment [4] was determined as 0.4 µM. With Ac-LADLIFTDSKLYAPLE-NH2 [TPTE2_I104A peptide 92-107], in experiment [4], the IC50 stood at 55 µM. Against the preceding molecule, the IC50 is about 140-fold higher. Ac-LADLIYTDSKLYIPLE-NH2 [TPTE2_F97Y peptide 92-107]: the IC50 in experiment [4] came to 440 µM. In experiment [5], LADLIFTDSKLYIPLE (source: synthetic peptide (GeneCust)) [wild‐type TPTE2_(92‐107) peptide] yielded a Kd of 4.5 µM. With LADLIFTDNKLYIPLE (source: synthetic peptide (GeneCust)) [TPTE2_(92‐107) S100N peptide], in experiment [5], binding was characterised by a dissociation constant (Kd) of 1.7 µM.

LADLIYTDSKLYIPLE (source: synthetic peptide (GeneCust)) [TPTE2_(92‐107) F97Y peptide] had a Kd in experiment [5] of 150 µM.

As to LADLIFTDSKLYLPLE (source: synthetic peptide (GeneCust)) [TPTE2 I104L peptide], the binding result in experiment [5] was “binds”. LADLIWTDSKLYIPLE (source: synthetic peptide (GeneCust)) [TPTE2_(92‐107) F97W peptide] yielded a Kd in experiment [5] of 0.1 µM. As for LADLIFTDSKLWIPLE (source: synthetic peptide (GeneCust)) [TPTE2 Y103W peptide], in experiment [5], the affinity, expressed as Kd, was 22 µM.

Take LADLIFTDSKLYAPLE (source: synthetic peptide (GeneCust)) [TPTE2 I104A peptide]: the Kd in experiment [5] is 18 µM. As for QFTEEDLHFVLYGVTPY [PRDM14 wt peptide 196-211], in experiment [6], the midpoint of inhibition, the IC50, lay at 400 µM. Take FTEEDLHFVLYGVTPS (FITC on the N-terminus) [FITC-labelled PRDM14 peptide 197-212]: the Kd in experiment [6] came out at 19 µM. QGAWLGAPEPWEPLLD [NOTCH4 wt peptide 1606-1621]: the IC50 in experiment [7] was found to be 205 µM. With {FITC}-FPTDERSWVYSPLHYS (source: synthetic peptide (GeneCust)) [FITC-labeled PIP5K1C probe peptide FITC-FPTDERSWVYSPLHYS], the dissociation constant (Kd) in experiment [8] worked out at 0.065 µM. Take GSTYLHPLSELLGIPL (FITC on the N-terminus) [FITC-labelled MBOAT1 peptide 16-31]: binding in experiment [3] was characterised by a dissociation constant (Kd) of 50.8 µM. AEGIDIGEMPSYDLVL (FITC on the N-terminus, NKRF residues 8-23) [FITC-labelled NKRF peptide 8-23]: in experiment [7], the Kd was 15.5 µM.
